The target in one test is T1, Mouse SLIT3-N (mouse, UniProt Q9WVB4 34-1119, limits assumed).
T1 construct: domain: SLIT3-N; d2-labelled in the HTRF assay
T1 sequence (looked up): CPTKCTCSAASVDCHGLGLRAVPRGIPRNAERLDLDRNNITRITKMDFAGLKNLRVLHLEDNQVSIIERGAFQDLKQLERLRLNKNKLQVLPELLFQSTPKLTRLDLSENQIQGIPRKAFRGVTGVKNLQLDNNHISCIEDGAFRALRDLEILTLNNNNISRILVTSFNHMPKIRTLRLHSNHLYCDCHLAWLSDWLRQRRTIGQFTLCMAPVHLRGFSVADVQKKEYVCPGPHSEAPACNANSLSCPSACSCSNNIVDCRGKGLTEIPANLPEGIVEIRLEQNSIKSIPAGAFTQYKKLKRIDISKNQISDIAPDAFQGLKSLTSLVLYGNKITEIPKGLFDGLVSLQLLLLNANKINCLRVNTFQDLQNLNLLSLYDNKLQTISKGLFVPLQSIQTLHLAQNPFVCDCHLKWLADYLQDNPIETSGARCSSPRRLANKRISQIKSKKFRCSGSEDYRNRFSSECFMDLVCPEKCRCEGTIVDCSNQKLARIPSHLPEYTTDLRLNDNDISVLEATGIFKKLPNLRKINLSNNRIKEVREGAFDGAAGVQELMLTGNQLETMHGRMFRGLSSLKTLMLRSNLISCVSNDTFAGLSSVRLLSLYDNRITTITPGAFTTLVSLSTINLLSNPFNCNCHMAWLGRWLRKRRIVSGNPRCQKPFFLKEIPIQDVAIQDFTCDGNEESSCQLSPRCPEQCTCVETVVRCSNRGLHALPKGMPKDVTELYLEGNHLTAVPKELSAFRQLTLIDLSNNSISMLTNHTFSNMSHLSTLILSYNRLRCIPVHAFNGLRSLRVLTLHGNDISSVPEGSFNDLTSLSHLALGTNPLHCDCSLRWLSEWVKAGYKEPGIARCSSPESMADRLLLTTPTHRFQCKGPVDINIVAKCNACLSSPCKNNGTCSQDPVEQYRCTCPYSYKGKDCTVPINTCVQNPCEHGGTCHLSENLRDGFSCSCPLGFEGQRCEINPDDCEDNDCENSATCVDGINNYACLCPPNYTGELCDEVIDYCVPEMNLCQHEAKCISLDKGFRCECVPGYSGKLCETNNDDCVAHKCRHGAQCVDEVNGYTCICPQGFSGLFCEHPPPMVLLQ
Description: HTRF competition: d2-labelled mouse SLIT3-N binding to human ROBO2 on HEK293 cells; geometric mean, n=3. As to the method: (§1) After incubation, fluorescence at 665 nm and 620 nm was measured on an Envision multilabel plate reader. The HTRF Ratio was calculated as follows: fluorescence at 665 nm/fluorescence at 620 nm×10,000. […] The IC₅₀ for each SLITx-N was determined using an 11-point, 4-fold dilution series with a top concentration of 4000 nM.
A general note: In TR-FRET formats the signal depends on donor and acceptor labels being close together.

The target in the next test is T2, Rat SLIT1-N (rat, UniProt O88279 34-1124, limits assumed).
T2 construct: domain: SLIT1-N; d2-labelled in the HTRF assay
T2 sequence (looked up): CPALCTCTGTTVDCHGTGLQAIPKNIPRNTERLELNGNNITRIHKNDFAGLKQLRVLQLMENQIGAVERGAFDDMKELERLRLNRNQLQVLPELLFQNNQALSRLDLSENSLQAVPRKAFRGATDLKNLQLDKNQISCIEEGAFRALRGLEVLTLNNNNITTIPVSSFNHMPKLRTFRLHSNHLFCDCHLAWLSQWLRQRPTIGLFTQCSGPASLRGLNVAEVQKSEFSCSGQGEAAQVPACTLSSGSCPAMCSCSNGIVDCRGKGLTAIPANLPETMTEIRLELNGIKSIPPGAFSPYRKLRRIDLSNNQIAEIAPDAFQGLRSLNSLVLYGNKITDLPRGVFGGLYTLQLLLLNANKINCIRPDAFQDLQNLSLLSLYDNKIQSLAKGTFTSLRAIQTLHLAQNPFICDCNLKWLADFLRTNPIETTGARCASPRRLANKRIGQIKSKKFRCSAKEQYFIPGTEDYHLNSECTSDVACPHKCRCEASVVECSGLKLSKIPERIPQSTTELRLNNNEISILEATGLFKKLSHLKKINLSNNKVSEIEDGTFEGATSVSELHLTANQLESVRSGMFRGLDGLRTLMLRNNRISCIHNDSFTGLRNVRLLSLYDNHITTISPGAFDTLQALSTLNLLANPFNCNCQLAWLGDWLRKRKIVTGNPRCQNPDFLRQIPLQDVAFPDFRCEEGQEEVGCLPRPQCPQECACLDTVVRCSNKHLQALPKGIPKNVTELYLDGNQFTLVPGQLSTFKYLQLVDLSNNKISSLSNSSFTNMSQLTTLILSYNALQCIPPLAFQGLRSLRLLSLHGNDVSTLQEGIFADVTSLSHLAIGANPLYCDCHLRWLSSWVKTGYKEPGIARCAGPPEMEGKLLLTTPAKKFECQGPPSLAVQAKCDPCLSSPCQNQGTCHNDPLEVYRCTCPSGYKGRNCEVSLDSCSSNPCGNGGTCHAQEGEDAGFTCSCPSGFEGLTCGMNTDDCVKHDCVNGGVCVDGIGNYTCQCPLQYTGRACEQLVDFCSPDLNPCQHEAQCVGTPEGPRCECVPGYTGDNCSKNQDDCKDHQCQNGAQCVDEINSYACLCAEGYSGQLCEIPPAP
The experiment in a line: HTRF competition: d2-labelled rat SLIT1-N binding to human ROBO2 on HEK293 cells; geometric mean, n=3. The method, then: as §1

Experimental findings from patent US20210214414A1 (Pfizer, published 2021) are described below.

Broadly, the IC50 is the midpoint of a concentration-inhibition curve. A high value points to lower potency.

B1: ROBO2-Fc 2.2 (Fc fusion)
chain: SRLRQEDFPPRIVEHPSDVIVSKGEPTTLNCKAEGRPTPTIEWYKDGERVETDKDDPRSHRMLLPSGSLFFLRIVHGRRSKPDEGSYVCVARNYLGEAVSRNASLEVALLRDDFRQNPTDVVVAAGEPAILECQPPRGHPEPTIYWKKDKVRIDDKEERISIRGGKLMISNTRKSDAGMYTCVGTNMVGERDSDPAELTVFERGGSGGSEPKSSDKTHTCPPCPAPEAAGAPSVFLFPPKPKDTLMISRTPEVTCVVVDVSHEDPEVKFNWYVDGVEVHNAKTKPREEQYNSTYRVVSVLTVLHQDWLNGKEYKCKVSNKALPAPIEKTISKAKGQPREPQVYTLPPSREEMTKNQVSLTCLVKGFYPSDIAVEWESNGQPENNYKTTPPVLDSDGSFFLYSKLTVDKSRWQQGNVFSCSVMHEALHNHYTQKSLSLSPG
notes: Labelled with Alexa Fluor 647 in the flow cytometry assay; also called ROBO-Fc 2.2; ROBO2-Fc 2.2-AF647
Turning to B1, the IC50 with Mouse SLIT3-N was 4.3 nM; with Rat SLIT1-N it was 8.3 nM.
